Results published in patent publication US8304236B2, “Modified biotin-binding protein” (Japan Tobacco Inc., priority 2008, dated 2012).
Substitutions are numbered along the chain they refer to. Names may count otherwise.

B1: TM2: wild type tamavidin 2, biotin-binding protein from Pleurotus cornucopiae, amino acid sequence SEQ ID NO: 2 (protein, listed as Pleurotus cornucopiae)
chain: MSDVQSSLTGTWYNELNSKMELTANKDGTLTGKYLSKVGDVYVPYPLSGRYNLQPPAGQGVALGWAVSWENSKIHSATTWSGQFFSESSPVILTQWLLSSSTARGDVWESTLVGNDSFTKTAPTEQQIAHAQLHCRAPRLK
B2: TM2 D40NR104EK141E: TM2 mutant having mutation of D40N and R104EK141E; SEQ ID NO: 24 (protein)
chain: B1 chain with D40N, R104E, K141E
modifications: Synthetic TM2 D40NR104EK141E

How the values were obtained:
fibronectin = fibronectin (Homo sapiens, UniProt P02751); test: Non-specific binding to fibronectin (fibronectin-immobilized microplate, biotinylated HRP, A450); conditions: absorbance at 450 nm
fibronectin, sequence (P02751 32-2477, species assumed): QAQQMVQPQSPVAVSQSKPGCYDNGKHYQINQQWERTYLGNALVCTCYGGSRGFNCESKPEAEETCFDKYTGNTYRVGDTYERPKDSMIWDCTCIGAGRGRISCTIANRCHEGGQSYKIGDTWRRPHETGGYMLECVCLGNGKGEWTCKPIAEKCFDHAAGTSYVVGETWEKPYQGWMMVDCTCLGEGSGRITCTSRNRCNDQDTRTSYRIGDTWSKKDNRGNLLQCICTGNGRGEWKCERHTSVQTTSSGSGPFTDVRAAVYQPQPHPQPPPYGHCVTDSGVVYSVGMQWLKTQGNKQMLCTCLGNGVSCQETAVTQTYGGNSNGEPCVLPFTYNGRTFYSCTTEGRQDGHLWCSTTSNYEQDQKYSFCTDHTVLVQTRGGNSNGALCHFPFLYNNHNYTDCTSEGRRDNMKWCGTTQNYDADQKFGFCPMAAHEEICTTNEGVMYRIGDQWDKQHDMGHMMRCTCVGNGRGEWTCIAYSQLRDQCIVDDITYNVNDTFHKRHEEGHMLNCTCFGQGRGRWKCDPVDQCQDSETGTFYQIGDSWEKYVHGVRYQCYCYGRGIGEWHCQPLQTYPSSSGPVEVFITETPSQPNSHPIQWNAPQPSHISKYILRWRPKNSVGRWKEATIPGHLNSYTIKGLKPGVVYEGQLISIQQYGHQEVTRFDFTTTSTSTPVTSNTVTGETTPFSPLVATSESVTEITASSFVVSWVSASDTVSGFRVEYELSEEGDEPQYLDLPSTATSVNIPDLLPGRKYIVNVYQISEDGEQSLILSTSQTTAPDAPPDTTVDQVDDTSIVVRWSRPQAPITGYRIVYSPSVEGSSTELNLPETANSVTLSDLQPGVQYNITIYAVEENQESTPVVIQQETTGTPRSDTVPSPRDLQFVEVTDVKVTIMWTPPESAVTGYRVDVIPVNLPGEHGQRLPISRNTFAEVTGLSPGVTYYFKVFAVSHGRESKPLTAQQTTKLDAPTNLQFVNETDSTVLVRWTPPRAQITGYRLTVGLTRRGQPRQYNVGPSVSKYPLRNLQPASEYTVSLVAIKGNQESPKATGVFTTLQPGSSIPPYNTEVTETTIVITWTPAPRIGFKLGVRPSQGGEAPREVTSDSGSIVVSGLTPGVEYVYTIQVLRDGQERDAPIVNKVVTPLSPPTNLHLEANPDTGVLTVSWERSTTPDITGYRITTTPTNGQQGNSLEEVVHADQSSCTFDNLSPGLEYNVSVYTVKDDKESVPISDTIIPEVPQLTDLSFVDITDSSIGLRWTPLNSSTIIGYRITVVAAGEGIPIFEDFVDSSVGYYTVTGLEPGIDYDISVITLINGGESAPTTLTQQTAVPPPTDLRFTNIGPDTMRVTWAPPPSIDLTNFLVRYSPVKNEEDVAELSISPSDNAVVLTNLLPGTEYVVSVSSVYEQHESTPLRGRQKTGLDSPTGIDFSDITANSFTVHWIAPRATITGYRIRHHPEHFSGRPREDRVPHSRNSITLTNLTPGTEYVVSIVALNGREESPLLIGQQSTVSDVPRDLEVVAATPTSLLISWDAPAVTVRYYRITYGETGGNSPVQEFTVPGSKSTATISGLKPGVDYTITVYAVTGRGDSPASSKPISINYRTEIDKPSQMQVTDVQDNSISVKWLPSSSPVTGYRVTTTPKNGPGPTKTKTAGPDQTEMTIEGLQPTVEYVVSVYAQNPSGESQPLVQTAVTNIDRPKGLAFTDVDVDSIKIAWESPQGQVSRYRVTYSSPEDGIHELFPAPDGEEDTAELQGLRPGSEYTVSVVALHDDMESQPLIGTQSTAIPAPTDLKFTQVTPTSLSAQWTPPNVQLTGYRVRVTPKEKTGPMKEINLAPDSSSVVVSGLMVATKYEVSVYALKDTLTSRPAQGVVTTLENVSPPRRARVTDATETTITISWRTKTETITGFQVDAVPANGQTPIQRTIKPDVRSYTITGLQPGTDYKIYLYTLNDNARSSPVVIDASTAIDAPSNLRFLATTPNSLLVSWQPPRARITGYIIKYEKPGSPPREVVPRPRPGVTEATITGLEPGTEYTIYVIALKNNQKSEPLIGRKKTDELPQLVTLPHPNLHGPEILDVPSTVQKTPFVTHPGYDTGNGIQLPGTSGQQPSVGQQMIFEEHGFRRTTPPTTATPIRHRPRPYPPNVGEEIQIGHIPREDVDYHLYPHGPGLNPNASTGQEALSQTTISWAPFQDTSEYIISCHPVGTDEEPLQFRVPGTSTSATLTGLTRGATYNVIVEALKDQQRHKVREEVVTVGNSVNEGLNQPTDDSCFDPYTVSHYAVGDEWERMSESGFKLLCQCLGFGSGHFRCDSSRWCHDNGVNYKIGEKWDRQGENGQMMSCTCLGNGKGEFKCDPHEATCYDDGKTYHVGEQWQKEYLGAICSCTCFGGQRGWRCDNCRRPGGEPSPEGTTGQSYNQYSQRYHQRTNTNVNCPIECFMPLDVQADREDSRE
Procedure: The fibronectin-binding of each low-pI TM2 was compared using a microplate to which fibronectin was immobilized. The concentration of fibronectin was adjusted to 50 μg/mL with a fixation solution exclusive for a New ELISA plate, and the fibronectin solution (50 μL) was added to each New ELISA plate (Sumitomo Bakelite), followed by shaking at 37° C. for 4 hours for immobilization. Then, the plate was washed with 0.1% Triton X-100-containing PBS (300 μL) three times and was then dried naturally.
TM2, K26A, K73Q, R104E, K141E, and R104EK141E mutants (50 μL each) were each added to the corresponding well of the plate and left at room temperature for 1 hour. The plate was washed with 300 μL/well of PBST (PBS buffer containing 0.1% Tween 20) three times. Then, biotinylated HRP diluted 5000 times with PBST containing 0.5% BSA was added at 50 μL/well and allowed to react with the mutant at room temperature for 1 hour. After washing with 300 μL/well of PBST three times, 50 μL/well of 1-Step Ultra TMB-ELISA solution was added to each well for color development. After termination of the color development with 50 μL/well of 2M sulfuric acid, absorbance at 450 nm was measured with an Infinite 200 microplate reader.
Non-specific binding of HALU TM2 to fibronectin was also investigated as in paragraph 1-10) of Example 1.

Salmon sperm DNA = test: Non-specific binding to DNA (membrane-adsorbed DNA, biotinylated HRP, ECL); conditions: salmon sperm DNA 10 μg to 1 μg on membrane, 25 μg/mL protein
Procedure: Salmon sperm DNA diluted stepwise from 10 μg to 1 μg with 2×SSC buffer was denatured with an alkali and was adsorbed to Hybond N+membrane (Amersham Biosciences) using Bio-Dot SF (BIO-RAD). After blocking the membrane with 5×Denhardt's solution (0.1% BSA, 0.1% ficoll, 0.1% polyvinylpyrrolidone), the membrane was immersed in 25 μg/mL of low-pI TM2 or the wild-type TM2 at room temperature for 90 minutes. Then, the membrane was washed with a TUBS buffer (TBS buffer containing 0.05% Tween 20) at room temperature for 5 minutes three times. The membrane was blocked with a TBS buffer containing 3% skimmed milk and 0.1% Tween 20 for 1 hour. The membrane was subjected to a reaction with biotinylated horseradise peroxidase (Vector) diluted 5000 times with a TBS buffer containing 3% skimmed milk and 0.1% Tween 20 at room temperature for 1 hour. The membrane was washed with a TBS buffer containing 0.1% Tween 20 again and was then shaken in a solution that is a mixture of reagent 1 and reagent 2 of ECL (Amasham) in the same volumes, followed by detection of the luminol reaction with Las-3000 (FUJIFILM).
The non-specific binding of HALU TM2 to DNA was analyzed by the process in paragraph 1-11) of Example 1.

human serum protein = test: Non-specific adsorption of serum protein to HALU TM2-immobilized magnetic beads; assay type: binding; conditions: human serum diluted 800 times, anti-human IgG detection
Procedure: In this Example, non-specific adsorption of serum protein to HALU TM2-immobilized magnetic beads was investigated.
TM2 D40NR104E and TM2 D40NR104EK141E were bonded covalently to magnetic beads (Dynabeads M-270 Carboxylic Acid, Dynal) by the process described in paragraph 1-9) of Example 1, and the amount of human serum protein adsorbed to the beads was measured. The amount of each HALU TM2 immobilized to the magnetic beads was adjusted to 10 μg/100 μL beads. Human serum (CHEMICON) was diluted 800 times with a PBS buffer, and the HALU TM2-immobilized magnetic beads (50 μL) to which a certain amount of protein was immobilized were added to the diluted human serum, followed by mixing by turning the tube containing the beads upside down at room temperature for 15 minutes. The magnetic beads were washed with a PBS buffer containing 0.1% Tween 20 (PBST, 500 μL) four times and were then subjected to antigen-antibody reaction at room temperature for 15 minutes with HRP-labeled anti-human IgG mouse antibody (100 μL) diluted 5000 times with PBST containing 0.5% BSA. Subsequently, the beads were washed with PBST (500 μL) five times, followed by color development with 1-Step Ultra TMB-ELISA (100 μL). After termination of the color development with 2M sulfuric acid (100 μL), the magnetic beads were collected with a magnet. The absorbance at 450 nm of the supernatant was measured with an Infinite 200 microplate reader.

[1] = Biotin-binding test (Biacore 3000, biotin-LC-BSA immobilized)
Procedure: High-purity BSA (Sigma, 2 mg) and NHS-LC-biotin (Pierce, 1 mg) were dissolved in 50 mM sodium borate (pH 8.0, 1 mL) and were incubated at 4° C. for 2 hours. The solution was put into a dialysis tube (MWCO 6-8,000) and was dialyzed with 50 mM sodium carbonate (pH 6.7) at 4° C. overnight. The resulting biotin-LC-BSA conjugate (MW: 67 kDa, 30 μM) was used as a ligand for a Biacore (registered trademark) biosensor.
Biotin-LC-BSA and BSA serving as a negative control were immobilized on CM5 sensor chips by amine coupling method. The amount for immobilization was adjusted to about 200 RU. The chips to which BSA was immobilized were disposed in flow cells 1 and 3, while the chips to which biotin-LC-BSA was immobilized were disposed in flow cells 2 and 4.
Accordingly, seven step measurement (3.125, 6.25, […], 25, 50, 100, and 200 nM) was conducted from the lowest concentration, without recycling steps. The data of BSA as reference was deducted from the data of BSA-LC-biotin. The measurement was performed at 25° C. The resulting sensorgrams were subjected to reaction kinetics analysis using analysis software BIAevaluation ver. 4.1 with a 1:1 binding model to calculate the binding rate constant (ka) and the dissociation rate constant (kd). The dissociation constant (KD) was determined from kd/ka. In the case where no recycling step is employed, the Rmax (maximum amount of binding analyte) decreases at each measurement. Accordingly, in the analysis, the Rmax was calculated by conducting local fitting for each concentration, and only the data of analyte concentrations that were approximated to the 1:1 binding model was employed.
TM2 and HALU TM2 used as analytes were prepared by purification with 2-iminobiotin agarose in accordance with a common method and dialysis with 20MM KPi (pH 7) overnight. The analytes were each adjusted to about 50 μg/mL in 10 mM acetate buffer (pH 5, Biacore).
The immobilization of the ligand and measurement and analysis of specific interaction with the analytes were conducted as in paragraph 2-7-2).

Molecule | Binding of fibronectin (A450) (fibronectin; listed as wild type TM2) | Non-specific binding of DNA (Salmon sperm DNA) | Non-specific binding of DNA (Salmon sperm DNA; listed as wild type TM2) | Non-specific binding to serum protein (A450) (human serum protein) | dissociation from biotin-LC-BSA ([1]; dissociation monitored for 60 minutes) | Binding of fibronectin (A450) (fibronectin) | Binding of fibronectin (A450) (fibronectin; listed as D40NR104EK141E) | Non-specific binding to serum protein (A450) (human serum protein; listed as D40NR104EK141E) | ka ([1]; Biotin-BSA (22.4 Å)) | kd ([1]; Biotin-BSA (22.4 Å), values in parentheses)
B1 | 1.3 to 1.4 | weakly bound | weakly bound | 0.67 | not dissociated | – | – | – | – | –
B2 | – | lower than the detection limit | – | low | – | extremely low | 0.12 | 0.45 | 1.5 × 10^6 | (1.4 × 10^−8)
